Source: US20150079112A1 (SAMSUNG ELECTRONICS, published 2015)

Key:
[1] = target: mutant Ang2 protein, A449 substituted with alanine, FLAG-tagged at its N-terminal (human) (UniProt O15123); test: ELISA, coated antibody 1000 nM, 250 ng FLAG-tagged mutant Ang2, anti-FLAG-HRP, OD450
[2] = target: T1, mutant Ang2 protein, I434 substituted with alanine, FLAG-tagged at its N-terminal (human, UniProt O15123 19-496, limits assumed); test: as above
T1 sequence: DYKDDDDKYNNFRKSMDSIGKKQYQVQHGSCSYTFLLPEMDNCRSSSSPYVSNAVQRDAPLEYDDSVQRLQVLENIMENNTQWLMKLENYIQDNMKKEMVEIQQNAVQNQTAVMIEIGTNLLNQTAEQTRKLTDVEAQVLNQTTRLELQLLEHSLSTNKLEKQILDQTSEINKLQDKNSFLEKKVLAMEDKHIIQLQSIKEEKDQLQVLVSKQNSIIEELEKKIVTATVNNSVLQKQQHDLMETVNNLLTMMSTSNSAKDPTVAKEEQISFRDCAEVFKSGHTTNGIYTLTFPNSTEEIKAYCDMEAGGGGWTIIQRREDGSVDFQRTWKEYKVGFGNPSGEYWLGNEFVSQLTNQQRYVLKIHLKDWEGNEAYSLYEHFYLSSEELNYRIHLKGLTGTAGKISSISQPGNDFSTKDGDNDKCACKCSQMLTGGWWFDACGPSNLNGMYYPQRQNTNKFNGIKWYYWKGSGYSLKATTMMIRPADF
Protocol: Each well of a 96-well MaxiSorp™ flat-bottom plate (Nunc) was coated with 50 ul (microliter) of 1000 nM antibody. Then, the plate was washed five times with 0.05% (v/v) Tween-20-containing PBS (PBST) and blocked with 1% (v/v) BSA-containing PBS at a room temperature for 2 hours. 250 ng of each mutant Ang2 protein obtained by substituting S417, Q418, P419, N421, I434, D448, A449, P452, Y460, N467, K468, or F469 residue of Ang2 protein tagged with a FLAG sequence ([…], Sigma) at its N-terminal with alanine was added to each well of the plate, which was then allowed to react at a room temperature for 2 hours.
The plate was washed five times with 0.05% (v/v) Tween-20 containing PBS, reacted with an anti-FLAG antibody (SIGMA) conjugated with HRP which was diluted in 1% (v/v) BSA-containing PBS at a ratio of 1:5,000 (v/v) at a room temperature for 1 hour, and washed five times with 0.1% (v/v) Tween-20-containing PBS.
Finally, 50 ul of TMB substrates (Cell signaling) was added to each well of the plate to induce color development at a room temperature for 3 min. and the reaction was ceased by the addition of 50 ul of Stop solution (Cell signaling) and then, OD450 values were measured on a plate reader (Molecular Devices). By comparing binding affinities with mutated Ang2 to those of unmutated Ang2, each epitope of Ang2 antibodies was identified. The thus obtained measurement results of the binding affinities (%) with mutant Ang2 against the binding affinity with the native Ang2 are shown in the following Table 8.

[3] = target: T2, BSA (bovine, UniProt P02769); test: ELISA: coated BSA, 10D6 2 µg/ml with or without FLAG-Ang2, detected with anti-mouse IgG-HRP (OD450)
T2 construct: also called Bovine serum albumin; BSA (Sigma)
T2 sequence (P02769 25-607 limits assumed): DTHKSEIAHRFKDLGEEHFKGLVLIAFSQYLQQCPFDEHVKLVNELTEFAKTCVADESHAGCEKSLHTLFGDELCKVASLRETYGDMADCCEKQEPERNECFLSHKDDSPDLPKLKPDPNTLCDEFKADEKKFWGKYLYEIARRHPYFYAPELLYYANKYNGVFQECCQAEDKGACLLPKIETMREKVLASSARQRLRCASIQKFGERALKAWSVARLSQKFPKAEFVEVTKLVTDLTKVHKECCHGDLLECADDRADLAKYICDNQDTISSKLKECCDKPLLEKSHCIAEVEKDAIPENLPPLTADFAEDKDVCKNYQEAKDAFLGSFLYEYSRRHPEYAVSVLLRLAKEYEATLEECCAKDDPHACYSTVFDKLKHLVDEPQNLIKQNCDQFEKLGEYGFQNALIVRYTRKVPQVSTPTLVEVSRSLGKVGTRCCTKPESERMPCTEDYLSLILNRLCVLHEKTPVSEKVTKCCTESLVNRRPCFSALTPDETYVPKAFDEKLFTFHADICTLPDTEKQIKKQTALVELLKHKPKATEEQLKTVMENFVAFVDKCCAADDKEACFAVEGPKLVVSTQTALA
Protocol: A 96-well MaxiSorp™ flat-bottom plate (Nunc) was coated with 4 ug/ml of Tie2-Fc (R&D systems) or BSA (Sigma). Then, the plate was washed five times with 0.05% (v/v) Tween-20-containing PBS (Phosphate Buffer Saline) and blocked with 1% (v/v) BSA (Bovine serum albumin; Sigma)-containing PBS at a room temperature for 2 hours. 0.25 ug/ml of Ang2 and 2 ug/ml of antibody 10D6 were added to each well of the plate, which was allowed to react at a room temperature for 2 hours and then washed five times with PBST. After that, an anti-mouse IgG antibody (Sigma) conjugated with HRP diluted in 1% (v/v) BSA-containing PBS at a ratio of 1:5,000 (v/v) was added in an amount of 100 ul to each well to react at a room temperature for 1 hour and then, the plate was washed five times with PBST. Lastly, 100 ul (microliter) of TMB substrate (Cell Signaling) was added to each well of the plate to induce color development for 3 min. and then, the reaction was ceased by the addition of 100 ul of Stop solution (Cell Signaling) and OD450 values were measured on a plate reader (Molecular Devices).

[4] = target: T3, recombinant hAng2 (C-His, R&D Systems) (human, UniProt O15123 19-496); test: SPR, BIAcore T100; hAng2 (C-His) captured on anti-His antibody on a CM5 chip, antibody flowed from 100 nM in twofold dilutions
T3 construct: also called human Ang2 protein
T3 sequence: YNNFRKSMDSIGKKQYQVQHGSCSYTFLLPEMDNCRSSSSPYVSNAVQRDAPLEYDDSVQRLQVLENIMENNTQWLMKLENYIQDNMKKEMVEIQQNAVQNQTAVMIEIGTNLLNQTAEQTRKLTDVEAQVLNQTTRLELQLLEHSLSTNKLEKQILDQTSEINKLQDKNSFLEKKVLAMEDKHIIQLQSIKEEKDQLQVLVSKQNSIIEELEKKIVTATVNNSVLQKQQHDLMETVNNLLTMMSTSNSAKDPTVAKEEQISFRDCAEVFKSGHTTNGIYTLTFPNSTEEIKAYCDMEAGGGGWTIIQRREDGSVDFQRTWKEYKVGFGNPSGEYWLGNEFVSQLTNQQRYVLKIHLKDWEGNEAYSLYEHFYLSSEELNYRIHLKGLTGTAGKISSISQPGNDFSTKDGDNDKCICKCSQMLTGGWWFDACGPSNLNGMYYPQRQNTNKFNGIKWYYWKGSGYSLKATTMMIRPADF
Protocol: The binding affinity of the above antibody to human Ang2 protein was measured by an SPR method using a BIAcore T100 (GE Healthcare). The SPR method uses refractive index change of light which passes a sensor chip according to the state of materials coated onto the sensor chip, and if an antigen or an antibody is flowed onto a chip coated with the antigen or antibody, it causes changes in refractive index due to their binding and Kd values are thus calculated from the measured values.
First, anti-His antibody was immobilized on a CM5 sensor chip (GE healthcare) up to 8,000 RU levels using a pH 5.0 acetate solution and an amine coupling kit (GE Healthcare). 6 μg/ml of a recombinant hAng2 (C-His, R&D Systems) protein was flowed onto the chip to be captured at 100 to 200 RU levels.

B1: SAIT-ANG2-AB-m10D6 (antibody, V domains shown)
VH: DVQLQESGPGLVKPSQSLSLTCTVTGYSITSDYAWNWIRQFPGNKLEWMGYINYSGNTDYNPSLKSRSSITRDTSKNQFFLQLNSVTTGDTATYYCARGNFEGAMDYWGQGTSVTVSS
VL: SIVMTQTPKFLLVSAGDRVTITCKASQSVSNDVAWYQQKPGQSPKLLIYYASNRYPGVPDRFTGSGYGTDFTFTISTVQAEDLAVYFCQQDYSSPWTFGGGTKLEIK
notes: also called antibody 10D6; anti-Ang2 antibody (10D6)
For B1, the binding affinity (%) with mutant Ang2 against the binding affinity with the native Ang2 [1] was 97.9%, the “binding affinity (%) with mutant Ang2 against the binding affinity with the native Ang2” value [2] was 109% and the binding result [3] was “no binding (tested: 2 µg/ml)”. The Kd [4] was 8 nM.
